This note sets out measurements from the emibetuzumab library of Makowski et al. (2022).

B1: VH:VL chains; a variant is named by its letters at X, in order (parent)
chain 1: QVQLVQSGAEVKKPGASVKVSCKASGYTFTDYXMHWVRQAPGQGLEWMGXVNPNXXXTTYNQKFEGRVTMTTDTSTSTAYMELRSLRSDDTAVYYCARXNXLDXWGQGTTVTVSS
chain 2: DIQMTQSPSSLSASVGDRVTITCSVSSSVSSIYLHWYQQKPGKAPKLLIYSTSNLASGVPSRFSGSGSGTDFTLTISSLQPEDFATYYCQVYSGYPLTFGGGTKVEIK

In the series the parent is B1. The experiment in a line: yeast display scFab, FACS + sequencing. In outline:
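For the non-specific binding call, a heavy-chain CDR mutant scFab library on the yeast surface was FACS-sorted and samples from two replicates were deep sequenced. Cells were labelled with anti-Myc and either biotinylated ovalbumin (260 μg/mL in PBSB, 3 h, room temperature) or soluble membrane proteins (130 μg/mL, 20 min on ice), with gates on the top 25% and bottom 10% of binders. With membrane protein and ovalbumin samples pooled, a sequence in ≥3 of 4 positive samples and no negatives was scored positive, and the converse rule scored negatives.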
Regarding SKGRGAWD, the non-specific binding call was “binds”. For SKGRGAWV, the non-specific binding call was “binds”. VKGRSVGY: the non-specific binding call was “binds”. YKGRGVVV: the non-specific binding call is listed as “binds”. AKGTASGD: the non-specific binding call is given as “binds”. For YKGRGYGA the value was “binds”; for YKGRGYGF, “binds”. In the case of YKGRGYGD, the non-specific binding call is “binds”. For the variant YKGRGASA, the non-specific binding call is reported as “binds”. For YKGRGASV, the non-specific binding call is reported as “binds”. In the case of YKGRGASD, the non-specific binding call is “binds”. For the variant YKGRGASS, the non-specific binding call is on record as “binds”. For YKGRSASV the value was “no binding”; for YKGRGDGY, “binds”. Consider YKGRGDGD, for which the non-specific binding call is “no binding”. For VKGRSDAS the value was “no binding”. For YKKESDSY the value was “no binding”. Turning to VKGRGDSF, the non-specific binding call is on record as “no binding”. VKGRGFAA: the non-specific binding call is recorded as “binds”. Consider YKGRGYWY, for which the non-specific binding call is “binds”.

For YKGRSAVY, the non-specific binding call is recorded as “binds”.

Regarding VKGTGFLD, the non-specific binding call was “binds”. In the case of YKGRGYLV, the non-specific binding call was “no binding”. In the case of VKKEDDVV, the non-specific binding call is on record as “no binding”.

As for SKGRSDGA, the non-specific binding call is “no binding”. Turning to SKGRSDGV, the non-specific binding call was “no binding”.

In the case of YKGRGAVS, the non-specific binding call is recorded as “binds”.

As for YKGRGYVA, the non-specific binding call was “binds”. For VKGRGASV, the non-specific binding call is given as “binds”. The entry for VKGRGVGA is “binds”. In the case of VKGRGVGY, the non-specific binding call is “binds”. Regarding YKGRGYSY, the non-specific binding call is “binds”.

On to VKGRGDAA, for which the non-specific binding call is on record as “no binding”.

DKGTDVGA: the non-specific binding call is given as “binds”.

For the variant YKGRGFAY, the non-specific binding call was “binds”. The entry for VKGRGYGA is “binds”. YKKGAAGF: the non-specific binding call was “binds”. Consider DKGRGSSA, for which the non-specific binding call is reported as “no binding”. For SKGRSDAV, the non-specific binding call is listed as “no binding”.

Turning to VKGRGSSF, the non-specific binding call is “no binding”. YKGRGFGD: the non-specific binding call is given as “binds”. Turning to VKGRSFLV, the non-specific binding call was “binds”. Consider VKGRSDSA, for which the non-specific binding call is on record as “no binding”. On to AKGRGDGA, for which the non-specific binding call is on record as “no binding”. On to FKGRGVWV, for which the non-specific binding call is “binds”. As for YKGRGYAV, the non-specific binding call was “binds”.

On to YKGRGYAA, for which the non-specific binding call is listed as “binds”. As to YKGRGYAD, the non-specific binding call is reported as “binds”. For SKGRSDVF, the non-specific binding call is given as “no binding”. For SKGRSDVY, the non-specific binding call is recorded as “no binding”. In the case of SKGRSDVS, the non-specific binding call is “no binding”. In the case of SKGRSDVV, the non-specific binding call is recorded as “no binding”. Consider VKGRGVVD, for which the non-specific binding call is “binds”. On to DKGRSVGV, for which the non-specific binding call was “no binding”.

As to SKGRSSWS, the non-specific binding call is “binds”. As to VKGRGSWS, the non-specific binding call is “binds”. Take VKGRGSWY: the non-specific binding call is on record as “binds”. On to VKGRGSWA, for which the non-specific binding call was “binds”. Regarding FKGRGSLY, the non-specific binding call was “binds”.

In the case of FKGRGSLS, the non-specific binding call is recorded as “binds”. Turning to FKGRGSLA, the non-specific binding call is reported as “binds”. With DKGRSAGD, the non-specific binding call is “no binding”. In the case of FKGRGSAD, the non-specific binding call is “binds”. Regarding FKGRGSAA, the non-specific binding call is recorded as “binds”.

On to VKKEDAGD, for which the non-specific binding call is recorded as “no binding”. Take VKGRGSLF: the non-specific binding call is listed as “binds”. The entry for YKGRGALY is “binds”; for YKGRGSAF it is “binds”. As to YKGRGSAY, the non-specific binding call is recorded as “binds”. For the variant VKGRSDGV, the non-specific binding call was “no binding”. For VKKESSGF the value was “binds”; for YKGTDAWY, “no binding”. Take SKGTDDWV: the non-specific binding call is on record as “no binding”. As to FKGRGSSS, the non-specific binding call was “binds”. As to YKGRGFSD, the non-specific binding call was “binds”. As to VKGTDAWY, the non-specific binding call is “no binding”. As to FKGTDSSD, the non-specific binding call is given as “binds”. Turning to YKGRGFWA, the non-specific binding call is “binds”.

As to VKGRGSAA, the non-specific binding call is “binds”.

Regarding VKGRGSAD, the non-specific binding call is reported as “binds”. In the case of VKGRGSAY, the non-specific binding call was “binds”. With YKGRGSWF, the non-specific binding call is “binds”. For YKGRGSWS, the non-specific binding call is “binds”. As for SKGRGSAA, the non-specific binding call is reported as “binds”. As to VKGRSDVY, the non-specific binding call was “no binding”. For YKGRSSSS, the non-specific binding call is recorded as “binds”.

Turning to VKGRTSVY, the non-specific binding call is given as “no binding”. Regarding VKGRGFWY, the non-specific binding call was “binds”.

Turning to YKGRGVGA, the non-specific binding call was “binds”.

In the case of YKGRGVGD, the non-specific binding call was “binds”.

In the case of YKGRGVGY, the non-specific binding call is “binds”. As to YKGRGVGV, the non-specific binding call is recorded as “binds”.

Regarding SKGRGAVY, the non-specific binding call is “binds”. The entry for DKKEDSAD is “no binding”; for FKGRGSGY it is “binds”; for FKGRGSGV it is “binds”.

For the variant FKGRGFVV, the non-specific binding call is “binds”. The entry for FKGRGFGV is “binds”; for YKGRGDWY it is “binds”. As to SKKEDSAD, the non-specific binding call is “no binding”. For YKGRSAAA the value was “binds”; for YKGRGSVY, “binds”.

Regarding YKGRGSVD, the non-specific binding call is reported as “binds”.

For the variant FKGRGDGS, the non-specific binding call is recorded as “binds”. Regarding FKGRGAVY, the non-specific binding call is reported as “binds”. The entry for FKGRGAVD is “binds”; for FKKEGYGD it is “binds”; for VKGRGSVF it is “no binding”. Turning to FKGRSASY, the non-specific binding call was “binds”. As for VKGRGAWY, the non-specific binding call is on record as “binds”.

As to VKGRGAWA, the non-specific binding call was “binds”. Consider VKGRGSGS, for which the non-specific binding call was “binds”.

For YKGRGFVY, the non-specific binding call is reported as “binds”. For VKGRSDWV the value was “no binding”; for YKGRGDAD, “binds”. In the case of YKGRGSLV, the non-specific binding call is given as “binds”. As for YKGRGSLF, the non-specific binding call is “binds”. As to YKGRGSLY, the non-specific binding call is “binds”. Regarding YKGRGSLA, the non-specific binding call was “binds”. Turning to SKGRSSLA, the non-specific binding call is on record as “no binding”. On to VKGTGVAY, for which the non-specific binding call is listed as “binds”. For the variant VKKESDSY, the non-specific binding call was “no binding”. In the case of FKGRGAWV, the non-specific binding call is “binds”. The entry for FKGRGAWS is “binds”.
